{"source": "the supplement of paper PMC9112550", "about": "“Optimization of the antimicrobial peptide Bac7 by deep mutational scanning” (BMC Biology, 2022);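 also: peptides expressed intracellularly from a pBAD plasmid library in pooled LB shake-flask culture, induced with 0.3% L-arabinose, DNA abundance read by NGS, three biological replicates, DESeq2 with apeglm shrinkage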"}
{"system": "Escherichia coli TOP10", "test": "shrunken log2 fold change of peptide-encoding DNA abundance (4.5 h post-induction vs induction); higher = less antimicrobial activity (less host growth inhibition)", "conditions": "time post-induction: 4.5 h; library: site-saturation at positions 5, 18, 19, 20"}
{"sequence": "RRIRIRPPRLPRPRPRPMTEPRP", "shrunken log2 fold change": 0.0149}
{"sequence": "RRIRSRPPRLPRPRPRPWPVPRP", "shrunken log2 fold change": 0.12}
{"sequence": "RRIRCRPPRLPRPRPRPENSPRP", "shrunken log2 fold change": -0.0484}
{"sequence": "RRIRERPPRLPRPRPRPSSLPRP", "shrunken log2 fold change": -0.223}
{"sequence": "RRIRVRPPRLPRPRPRPGDYPRP", "shrunken log2 fold change": -0.0161}
{"sequence": "RRIRKRPPRLPRPRPRPLPWPRP", "shrunken log2 fold change": 0.814}
{"sequence": "RRIRKRPPRLPRPRPRPLPLPRP", "shrunken log2 fold change": 0.387}
{"sequence": "RRIRERPPRLPRPRPRPWMTPRP", "shrunken log2 fold change": -0.108}
{"sequence": "RRIRPRPPRLPRPRPRPWDCPRP", "shrunken log2 fold change": -0.0719}
{"sequence": "RRIRVRPPRLPRPRPRPKMIPRP", "shrunken log2 fold change": -0.162}
{"sequence": "RRIRKRPPRLPRPRPRPGNGPRP", "shrunken log2 fold change": 0.351}
{"sequence": "RRIRIRPPRLPRPRPRPQYLPRP", "shrunken log2 fold change": -0.346}
{"sequence": "RRIRSRPPRLPRPRPRPPSSPRP", "shrunken log2 fold change": -0.0711}
{"sequence": "RRIRTRPPRLPRPRPRPHPFPRP", "shrunken log2 fold change": -0.00172}
{"sequence": "RRIRDRPPRLPRPRPRPLIGPRP", "shrunken log2 fold change": 0.239}
{"sequence": "RRIRARPPRLPRPRPRPPIQPRP", "shrunken log2 fold change": 0.431}
{"sequence": "RRIRYRPPRLPRPRPRPFYRPRP", "shrunken log2 fold change": -0.0056}
{"sequence": "RRIRLRPPRLPRPRPRPFWPPRP", "shrunken log2 fold change": 0.184}
{"sequence": "RRIRNRPPRLPRPRPRPYHLPRP", "shrunken log2 fold change": 0.0195}
{"sequence": "RRIRMRPPRLPRPRPRPNWIPRP", "shrunken log2 fold change": -0.118}
{"sequence": "RRIRGRPPRLPRPRPRPSFIPRP", "shrunken log2 fold change": -0.166}
{"sequence": "RRIRARPPRLPRPRPRPEWMPRP", "shrunken log2 fold change": 0.252}
{"sequence": "RRIRIRPPRLPRPRPRPTQCPRP", "shrunken log2 fold change": -0.65}
{"sequence": "RRIRHRPPRLPRPRPRPSSVPRP", "shrunken log2 fold change": 0.0608}
{"sequence": "RRIRLRPPRLPRPRPRPETHPRP", "shrunken log2 fold change": 0.161}
{"sequence": "RRIRSRPPRLPRPRPRPEVQPRP", "shrunken log2 fold change": -0.0242}
{"sequence": "RRIRMRPPRLPRPRPRPEFHPRP", "shrunken log2 fold change": 0.0755}
{"sequence": "RRIRGRPPRLPRPRPRPNSTPRP", "shrunken log2 fold change": 0.344}
{"sequence": "RRIRKRPPRLPRPRPRPLIMPRP", "shrunken log2 fold change": -0.376}
{"sequence": "RRIRGRPPRLPRPRPRPERFPRP", "shrunken log2 fold change": 0.969}
{"sequence": "RRIRMRPPRLPRPRPRPSQYPRP", "shrunken log2 fold change": -0.191}
{"sequence": "RRIRCRPPRLPRPRPRPIELPRP", "shrunken log2 fold change": -0.0768}
{"sequence": "RRIRWRPPRLPRPRPRPVGWPRP", "shrunken log2 fold change": 1.13}
{"sequence": "RRIRTRPPRLPRPRPRPCSIPRP", "shrunken log2 fold change": -0.472}
{"sequence": "RRIRNRPPRLPRPRPRPVQAPRP", "shrunken log2 fold change": -0.00783}
{"sequence": "RRIRHRPPRLPRPRPRPAYVPRP", "shrunken log2 fold change": -0.102}
{"sequence": "RRIRFRPPRLPRPRPRPNHCPRP", "shrunken log2 fold change": -0.0425}
{"sequence": "RRIRQRPPRLPRPRPRPADLPRP", "shrunken log2 fold change": -0.0217}
{"sequence": "RRIRERPPRLPRPRPRPHHQPRP", "shrunken log2 fold change": -0.318}
{"sequence": "RRIRYRPPRLPRPRPRPHYQPRP", "shrunken log2 fold change": -0.522}
{"sequence": "RRIRGRPPRLPRPRPRPRWMPRP", "shrunken log2 fold change": 0.297}
{"sequence": "RRIRIRPPRLPRPRPRPDPCPRP", "shrunken log2 fold change": -0.224}
{"sequence": "RRIRERPPRLPRPRPRPYTVPRP", "shrunken log2 fold change": -0.74}
{"sequence": "RRIRFRPPRLPRPRPRPPANPRP", "shrunken log2 fold change": 0.858}
{"sequence": "RRIRTRPPRLPRPRPRPYMDPRP", "shrunken log2 fold change": -1.37}
{"sequence": "RRIRQRPPRLPRPRPRPVHKPRP", "shrunken log2 fold change": 0.0383}
{"sequence": "RRIRFRPPRLPRPRPRPQMEPRP", "shrunken log2 fold change": -0.059}
{"sequence": "RRIRNRPPRLPRPRPRPTIVPRP", "shrunken log2 fold change": -0.0363}
{"sequence": "RRIRIRPPRLPRPRPRPTQAPRP", "shrunken log2 fold change": -0.00254}
{"sequence": "RRIRERPPRLPRPRPRPTRRPRP", "shrunken log2 fold change": 0.059}
{"sequence": "RRIRMRPPRLPRPRPRPMSAPRP", "shrunken log2 fold change": 0.333}
{"sequence": "RRIRIRPPRLPRPRPRPFCIPRP", "shrunken log2 fold change": -0.581}
{"sequence": "RRIRVRPPRLPRPRPRPFKPPRP", "shrunken log2 fold change": -0.132}
{"sequence": "RRIRARPPRLPRPRPRPFCEPRP", "shrunken log2 fold change": 0.303}
{"sequence": "RRIRQRPPRLPRPRPRPKGPPRP", "shrunken log2 fold change": -0.201}
{"sequence": "RRIRGRPPRLPRPRPRPKYFPRP", "shrunken log2 fold change": -0.251}
{"sequence": "RRIRFRPPRLPRPRPRPGQTPRP", "shrunken log2 fold change": 0.0249}
{"sequence": "RRIRRRPPRLPRPRPRPMGSPRP", "shrunken log2 fold change": -0.0322}
{"sequence": "RRIRPRPPRLPRPRPRPPWFPRP", "shrunken log2 fold change": 0.32}
{"sequence": "RRIRMRPPRLPRPRPRPQPKPRP", "shrunken log2 fold change": 1.77}
{"sequence": "RRIRKRPPRLPRPRPRPCGQPRP", "shrunken log2 fold change": 0.0682}
{"sequence": "RRIRQRPPRLPRPRPRPIPQPRP", "shrunken log2 fold change": -0.0321}
{"sequence": "RRIRHRPPRLPRPRPRPVNQPRP", "shrunken log2 fold change": -0.0313}
{"sequence": "RRIRQRPPRLPRPRPRPQTGPRP", "shrunken log2 fold change": -0.137}
{"sequence": "RRIRERPPRLPRPRPRPSLLPRP", "shrunken log2 fold change": -0.208}
{"sequence": "RRIRQRPPRLPRPRPRPVAAPRP", "shrunken log2 fold change": 0.51}
{"sequence": "RRIRYRPPRLPRPRPRPEKAPRP", "shrunken log2 fold change": 0.00447}
{"sequence": "RRIRYRPPRLPRPRPRPVWDPRP", "shrunken log2 fold change": -0.0448}
{"sequence": "RRIRPRPPRLPRPRPRPIFSPRP", "shrunken log2 fold change": 0.14}
{"sequence": "RRIRNRPPRLPRPRPRPHQPPRP", "shrunken log2 fold change": 0.0075}
{"sequence": "RRIRFRPPRLPRPRPRPINFPRP", "shrunken log2 fold change": -0.601}
{"sequence": "RRIRCRPPRLPRPRPRPFMWPRP", "shrunken log2 fold change": -0.165}
{"sequence": "RRIRTRPPRLPRPRPRPPGVPRP", "shrunken log2 fold change": 0.182}
{"sequence": "RRIRLRPPRLPRPRPRPTRWPRP", "shrunken log2 fold change": 0.456}
{"sequence": "RRIRQRPPRLPRPRPRPYPTPRP", "shrunken log2 fold change": 0.0734}
